These results are taken from publication PMC3948464 (Nature Communications, 2014).

In the experiment the target is GST-AK2 (glutatione S-transferase-adenylate kinase 2) (human, UniProt P54819 1-239). Nature of the experiment: SEC.

B1: His-DUSP26 (enzyme)
chain: MCPGNWLWASMTFMARFSRSSSRSPVRTRGTLEEMPTVQHPFLNVFELERLLYTGKTACNHADEVWPGLYLGDQDMANNRRELRRLGITHVLNASHSRWRGTPEAYEGLGIRYLGVEAHDSPAFDMSIHFQTAADFIHRALSQPGGKILVHCAVGVSRSATLVLAYLMLYHHLTLVEAIKKVKDHRGIIPNRGFLRQLLALDRRLRQGLEA
For B1, the binding result is “binds”.
